The record followed here is US20250215059A1.

A value given as a limit tells only on which side of the number the result lay.

In test [1] the target is tau aggregates in HEK293 tau biosensor cells (4R repeat domain of tau (K18) with the P301S mutation fused to CFP or YFP, seeded with clarified tau mouse brain homogenate) (UniProt P10636). Put plainly: Halo imaging, colocalization with cytoplasmic tau aggregates (FIG. 5D).
The target is the same in test [2]. Put plainly: Halo imaging, colocalization with cytoplasmic tau aggregates, 5 images.
Test [3] shares this target. Kind of test: Halo (JF646) imaging; intensity in aggregate over adjacent region, 5 aggregates.
The target is the same in test [4]. Kind of test: Halo (JF646) imaging; intensity in aggregate over adjacent region, five aggregates.
For test [5] the target is unchanged. Kind of test: Halo (JF646) imaging in seeded HEK293 tau biosensor cells; mean Halo intensity in aggregates over that of the compartment.

tau aggregates in HEK293 tau biosensor cells (4R repeat domain of tau (K18) with the P301S mutation fused to CFP or YFP, seeded with clarified tau mouse brain homogenate), sequence (P10636 561-689 P618S): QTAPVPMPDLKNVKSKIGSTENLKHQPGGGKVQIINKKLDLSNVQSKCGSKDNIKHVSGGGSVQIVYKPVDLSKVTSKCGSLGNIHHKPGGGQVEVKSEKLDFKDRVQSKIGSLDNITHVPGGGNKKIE

Take 42-polyserine-halo: the percentage of cytoplasmic tau aggregates with recruitment in test [1] is above 90%. This substance returned a percentage of cytoplasmic tau aggregates positive for the construct in test [2] of 96%. This substance also yielded a mean enrichment in cytoplasmic tau aggregates in test [3] of 5.46.
In turn, Frag_1-Halo (SRRM2 a.a. 2606-2752) showed a mean enrichment in cytoplasmic tau aggregates in test [4] of 2.5.
With Frag_2-Halo (SRRM2 a.a. 2458-2752), the percentage of cytoplasmic tau aggregates with recruitment in test [1] is above 90%. The percentage of cytoplasmic tau aggregates positive for the construct in test [2] turned out to be 98%. Also, the mean enrichment in cytoplasmic tau aggregates in test [4] came to 4.3.
In turn, Halo tagged 20 serine repeat yielded a mean enrichment in cytoplasmic tau aggregates in test [3] of 1.19.
For the substance “SRRM2_FL-Halo (from UniProt Q9UQ35 1-2748)”, in test [2], the percentage of cytoplasmic tau aggregates positive for the construct turned out to be 62%. In test [5], this substance had a mean enrichment in tau aggregates of 2.57.
